Measurements published in patent US20240417446A1 (US Dept. of Health and Human Services, published 2024).

Key:
[1] = biological target: T1, SARS-CoV-2 spike protein on pseudovirus (SARS-CoV-2, UniProt P0DTC2 14-1273); experiment: cell-based or functional assay
[2] = biological target: T1, SARS-CoV-2 spike protein on pseudovirus; experiment: cell-based or functional assay; remark: listed apart in the source
[3] = biological target: T2, BSA (bovine, UniProt P02769); experiment: Protein ELISA, antigen coated, HRP-anti-Flag detection, absorbance 450 nm
T2 construct: also called bovine serum albumin
T2 sequence (P02769 25-607 limits assumed): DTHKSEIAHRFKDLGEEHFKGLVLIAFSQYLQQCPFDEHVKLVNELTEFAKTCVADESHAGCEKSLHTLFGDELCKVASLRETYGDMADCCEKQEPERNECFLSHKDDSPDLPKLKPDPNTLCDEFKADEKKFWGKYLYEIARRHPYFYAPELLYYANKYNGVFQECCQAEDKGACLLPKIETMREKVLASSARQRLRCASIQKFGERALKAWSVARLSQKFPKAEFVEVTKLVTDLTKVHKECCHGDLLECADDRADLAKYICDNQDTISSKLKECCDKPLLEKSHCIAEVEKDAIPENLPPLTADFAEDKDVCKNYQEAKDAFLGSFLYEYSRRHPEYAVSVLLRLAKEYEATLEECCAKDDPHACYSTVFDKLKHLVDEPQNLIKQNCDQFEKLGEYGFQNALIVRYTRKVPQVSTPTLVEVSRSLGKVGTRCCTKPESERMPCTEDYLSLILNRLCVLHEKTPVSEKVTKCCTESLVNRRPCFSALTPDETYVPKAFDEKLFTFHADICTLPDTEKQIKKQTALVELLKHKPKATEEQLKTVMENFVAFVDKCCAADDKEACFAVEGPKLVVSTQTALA

[4] = biological target: SARS-CoV-1 spike protein on pseudovirus (SARS-CoV-1, UniProt P59594 14-1255); experiment: cell-based or functional assay
[5] = biological target: T1, SARS-CoV-2 spike protein on pseudovirus; experiment: cell-based or functional assay; remark: listed apart in the source
[6] = biological target: A431-SARS-CoV-S; experiment: Flow cytometry on A431 cells expressing SARS-CoV spike, anti-FLAG-APC detection
[7] = biological target: T2, BSA; experiment: Protein ELISA, antigen coated, HRP-anti-Flag detection, absorbance 450 nm; remark: listed apart in the source
[8] = biological target: T2, BSA; experiment: Protein ELISA, antigen coated, HRP-anti-Flag detection, OD450

B1: NCI-CoV-CL3H4 (VHH)
VHH: DVQLVESGGGAVKPGGSLTLTCTVQEGSRNCVGWFRQGSGKDRQAVAMINGNGGTTNYDDRVKGRFQISRDGSLVHLRMNDVKLGDTDIYYCRQGQTYDCWGGTWTDSGWGQGTQVTVSS
[1]
  Neutralizing Power, SARS-CoV-2 Pseudovirus Neutralization Assay: 30%

B2: NCI-CoV-S2A9 (VNAR)
VNAR: ARVDQTPRSVTKETGESLTINCVLRDASYALGRTCWYRKKSGSTNEESISKGGRYVETVNSGSKSFSLRINDLTVEDGGTYRCGVSTPWSCDYGPLCFYAACGDGTVVTVN
[2]
  IC50, neutralization of the original strain of SARS-CoV-2 pseudovirus: 1380 nM
  IC50, pseudovirus neutralization (luciferase, 293-hACE2 cells): 1290 nM
[3]
  binding result: no binding (tested: 10 µg/ml)
[4]
  IC50 for neutralizing pseudovirus: 49300 nM
[5]
  IC50 for neutralizing pseudovirus: 4340 nM
[1]
  Neutralizing Power, SARS-CoV-2 Pseudovirus Neutralization Assay: 90%

B3: NCI-CoV-CLA2 (VHH)
VHH: QVQLVESGGGSVQPGGSLRLSCAVSGYTSSSYCFGWFRQAPGKDREGIIAMEPGNTYTAGAVKGRFTISRDNAKNMVYLQMNSLKPDDTAMYYCAASPYPGTWLNPDLFDTWGQGTQVTVSS
[1]
  Neutralizing Power, SARS-CoV-2 Pseudovirus Neutralization Assay: 45%

B4: NCI-CoV-CGH3 (VHH)
VHH: AVQLVESGGGLVQPGGSLRLSCAASGFTFSSYAMGWVRQAPGKGLEWISAINSGGDIRYYADSVKGRFTISRDNAKNTLYLQMNSLKPEDTAVYYCATDDEILSYGLGTSFDYWGQGTQVTVSS
[6]
  binding result: no binding
[1]
  Neutralizing Power, SARS-CoV-2 Pseudovirus Neutralization Assay: 30%

B5: NCI-CoV-S2G8 (VNAR)
VNAR: ARVDQTPQTITKETGESLTINCVLRDSNCPLSNTYWYRKKSGSTNEESISKGGRYVETVNSGSKSFSLRINDLTVEDSGTYRCKVRTHWSICWEMGLEPNYDVYGGGTVVTVN
[6]
  binding result: binds
[1]
  Neutralizing Power, SARS-CoV-2 Pseudovirus Neutralization Assay: 50%
[7]
  binding result: no binding (tested: 10 µg/ml)

B6: NCI-CoV-S3A10 (VNAR)
VNAR: ARVDQTPRSVTKETGESLTINCVLRDASYALGSTCWYRKKSGSTNEESISKGGRYVETVNSGSKSFSLRINDLTVEDGGTYRCGRIQNTKAVLLPCVYAACGDGTVVTVN
[1]
  Neutralizing Power, SARS-CoV-2 Pseudovirus Neutralization Assay: 60%

B7: NCI-CoV-CGF10 (VHH)
VHH: AVQLVESGGGLVQPGGSLRLSCAASGFTFSSYGMHWVRQAPGKGLERVAGINWDGSNSYYTETVKGRFTISRDNAKNTAYLQMNSLKPEDTAMYYCRTLILDSDCDPGSTYRYAWGQGTQVTVSS
[6]
  binding result: no binding
[1]
  Neutralizing Power, SARS-CoV-2 Pseudovirus Neutralization Assay: 20%

B8: NCI-CoV-CG2G2 (VHH)
VHH: AVQLVESGGGSVPPGGSLTLSCTVSDNIFRTYAVGWFRQAPEKRCQWIATLNADESTEYNVAVTGRFTISRDNSGRSVYLQMDNLNSEDTAIYYCASLARKWSCHDSWGRGTQVTVSS
[8]
  binding result: no binding (tested: 10 µg/ml)
[1]
  Neutralizing Power, SARS-CoV-2 Pseudovirus Neutralization Assay: 50%

B9: NCI-CoV-S4A9 (VNAR)
VNAR: ARVDQTPRSVTKETGESLTINCVLRDASYALGSTCWYRKKSGSTNEESISKGGRYVETVNSGSKSFSLRINDLTVEDGGTYRCGVQSRWGAVPKLCSNYAACGDGTAVTVN
[1]
  Neutralizing Power, SARS-CoV-2 Pseudovirus Neutralization Assay: 30%

B10: NCI-CoV-CG2D11 (VHH)
VHH: AVQLVDSGGGSVQAGGSLRLSCAGSAFTYSSYCMGWFRQAPGKEREAVAAINSGTSSTYYADSVKGRFTVSQDNANNTVYLLMISLKPEDTAIYICAALVAPDYDDYDVAAPDNFDYWGQGTQVTVSS
[1]
  Neutralizing Power, SARS-CoV-2 Pseudovirus Neutralization Assay: 40%
